Data as given in article PMC6220978, “Induced conformational changes activate the peptidoglycan synthase PBP1B” (Molecular Microbiology, 2018).
Substitutions are numbered along the chain they refer to.

Columns and labels:
Experiment in all cases: SPR; reducing conditions: 2 mM TCEP in the SPR running buffer, immobilised PBP1B versions incubated in it for 30 min before the assay; LpoB injected from 19.5 nM to 10 μM; apparent KD
Details in all cases: both partners purified
[1] = target: T1, PBP1B P162C/I644C (E. coli, UniProt P02919 46-844, P162C | I644C)
T1 construct: PBP1B, E. coli, residues 46-844, made by mutagenesis of pDML924; Disulphide bridge between C162 and C644 (no free thiol groups detected); reduced in the SPR assay with 2 mM TCEP; source: E. coli BL21(DE3), purified (membrane extract, HisTrap, thrombin, HiTrap SP ion exchange)
T1 sequence (looked up): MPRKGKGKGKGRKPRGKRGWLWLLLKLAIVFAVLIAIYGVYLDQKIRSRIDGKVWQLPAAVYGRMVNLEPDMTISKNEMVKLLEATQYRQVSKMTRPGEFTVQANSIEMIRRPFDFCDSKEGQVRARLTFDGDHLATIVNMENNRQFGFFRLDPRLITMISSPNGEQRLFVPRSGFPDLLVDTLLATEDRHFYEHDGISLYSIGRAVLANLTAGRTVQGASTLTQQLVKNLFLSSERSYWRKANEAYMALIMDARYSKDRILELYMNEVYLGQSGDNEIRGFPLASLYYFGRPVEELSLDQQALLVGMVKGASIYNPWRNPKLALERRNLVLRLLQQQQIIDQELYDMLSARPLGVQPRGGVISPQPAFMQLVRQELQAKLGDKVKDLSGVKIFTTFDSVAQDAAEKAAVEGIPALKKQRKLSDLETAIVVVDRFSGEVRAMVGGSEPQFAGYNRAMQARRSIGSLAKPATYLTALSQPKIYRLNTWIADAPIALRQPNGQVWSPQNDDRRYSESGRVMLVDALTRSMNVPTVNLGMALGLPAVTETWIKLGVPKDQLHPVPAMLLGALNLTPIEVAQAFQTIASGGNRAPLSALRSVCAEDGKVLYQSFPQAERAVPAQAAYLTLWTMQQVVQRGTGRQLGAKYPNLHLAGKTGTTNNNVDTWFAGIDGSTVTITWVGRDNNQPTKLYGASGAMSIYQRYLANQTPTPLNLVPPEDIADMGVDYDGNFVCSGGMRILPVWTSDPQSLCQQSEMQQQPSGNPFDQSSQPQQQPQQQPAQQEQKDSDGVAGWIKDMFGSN

[2] = target: T2, PBP1B R157A (E. coli, UniProt P02919 46-844, R157A)
T2 construct: PBP1B, E. coli, residues 46-844, made by mutagenesis of pDML924; source: E. coli BL21(DE3), purified (membrane extract, HisTrap, thrombin, HiTrap SP ion exchange)
T2 sequence (looked up): T1 sequence (looked up) with R112A, C117P, C599I

[3] = target: T3, PBP1B^Δ158–160 (E. coli, UniProt P02919 46-844, Δ158–160)
T3 construct: PBP1B, E. coli, residues 46-844 with residues 158-160 of Loop 1 removed, made by mutagenesis of pDML924; also called Loop 1 truncation; source: E. coli BL21(DE3), purified (membrane extract, HisTrap, thrombin, HiTrap SP ion exchange)
T3 sequence (looked up): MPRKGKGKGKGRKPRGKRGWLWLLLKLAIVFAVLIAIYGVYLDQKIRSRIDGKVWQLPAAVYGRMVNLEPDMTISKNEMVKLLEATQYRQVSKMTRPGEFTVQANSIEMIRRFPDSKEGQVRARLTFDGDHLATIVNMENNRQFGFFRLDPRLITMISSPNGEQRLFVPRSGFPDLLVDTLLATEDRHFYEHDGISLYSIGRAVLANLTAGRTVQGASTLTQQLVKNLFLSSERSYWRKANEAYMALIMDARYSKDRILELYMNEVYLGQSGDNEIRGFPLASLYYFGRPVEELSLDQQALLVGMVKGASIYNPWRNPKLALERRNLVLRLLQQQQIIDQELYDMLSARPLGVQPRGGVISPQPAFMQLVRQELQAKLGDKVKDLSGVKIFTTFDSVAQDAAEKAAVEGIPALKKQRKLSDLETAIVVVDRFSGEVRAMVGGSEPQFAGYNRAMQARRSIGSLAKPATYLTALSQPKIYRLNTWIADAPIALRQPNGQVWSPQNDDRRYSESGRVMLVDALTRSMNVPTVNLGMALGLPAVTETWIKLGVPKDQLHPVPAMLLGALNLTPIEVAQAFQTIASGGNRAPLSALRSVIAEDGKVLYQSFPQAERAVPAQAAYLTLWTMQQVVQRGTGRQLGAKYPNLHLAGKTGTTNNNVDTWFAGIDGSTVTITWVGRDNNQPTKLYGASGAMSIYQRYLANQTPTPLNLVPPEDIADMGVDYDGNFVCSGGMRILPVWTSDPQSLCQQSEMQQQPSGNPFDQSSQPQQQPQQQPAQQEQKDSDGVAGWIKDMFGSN

B1: LpoB (natural protein, E. coli)
chain: VGQREPAPVEEVKPAPEQPAEPQQPVPTVPSVPTIPQQPGPIEHEDQTAPPAPHIRHYDWNGAMQPMVSKMLGADGVTAGSVLLVDSVNNRTNGSLNAAEATETLRNALANNGKFTLVSAQQLSMAKQQLGLSPQDSLGTRSKAIGIARNVGAHYVLYSSASGNVNAPTLQMQLMLVQTGEIIWSGKGAVSQQ
notes: LpoB, E. coli; also called lipoprotein LpoB; source: E. coli BL21(DE3), purified (HisTrap, Superdex 200), as in Egan et al. 2014
For B1, the Kd [1] was 182 nM, the Kd [2] was 357 nM and the Kd [3] was 1700 nM.
